Here are results for two molecules from patent US20220206001A1 (TWIST BIOSCIENCE, published 2022).

Experiment [1] concerns the target SARS-CoV-2 nucleocapsid protein (SARS-CoV-2, UniProt P0DTC9 1-419). Nature of the experiment: lateral flow screen with nucleocapsid protein, capture antibody.
The target of a further experiment is T1, SARS-CoV S1 monomer (SARS-CoV, UniProt P59594 14-667).
T1 construct: domain: S1
The experiment can be described thus: SPR (Carterra LSA).

B1: Ab-89 (antibody, V domains shown)
VH: EVQLVESGGGLVQPGGSLRLSCAASGIPSTLRAMGWFRQAPGKEREFVALINRSGGSQFYADSVKGRFTISADNSKNTAYLQMNSLKPEDTAVYYCAIGRGSWGQGTLVTVSS
Regarding B1, the binding result in experiment [1] is on record as “binds”.

B2: Ab-7 (antibody, V domains shown)
VH: EVQLLESGGGLVQPGGSLRLSCAASGFTFSDFAMAWVRQAPGKGLEWVSAISGSGDITYYADSVKGRFTISRDNSKNTLYLQMNSLRAEDTAVYYCAREADGLHSPWHFDLWGQGTLVTVSS
VL: DIQMTQSPSSLSASVGDRVTITCRASQSIHTYLNWYQQKPGKAPKLLIYAASALASGVPSRFSGSGSGTDFTLTISSLQPEDFATYYCQQSYSAPPYTFGQGTKVEIK
For B2, the binding result in the experiment with SARS-CoV S1 monomer is reported as “binds”.
